Assay results from patent publication US20230348578A1 (BETH ISRAEL DEACONESS MEDICAL CENTER, published 2023).

B1: Cis-mAb HT13 (mouse-human chimera, control) (antibody, V domains shown)
VH: QVQLQQPGAELVKPGASVKMSCKASGYTFTSYWIHWVKQRPGQGLEWIGVIDPSDSYTRYNQKFKGKATLTVDTSSSTAYMQLSSLTSEDSAVYYCTTWEVDYWGQGTTLTVSS
VL: DVVMTQTPLSLPVSLGDQASISCRSSQSLVHSDGNTYLHWYLQKPGQSPKLLIYKVSNRFSGVPDRFSGSGSGTDFTLKISRLEAEDLGVYFCSQSTHVPWTFGGGTKLEIK
B2: Cis-mAb HT1 (humanized) (antibody, V domains shown)
VH: QVQLVQSGAELKKPGASVKMSCKASGYTFTSYWIHWVKQRPGQGLEWIGVIDPSDSYTRYNQKFKGRATLTVDTSASTAYMQLSSLTSEDSAVYYCTTWEVDYWGQGTTVTVSS
VL: DVVMTQSPLSLPVTLGQPASISCRSSQSLVHSDGNTYLHWYLQKPGQSPQLLIYKVSNRFSGVPDRFSGSGSGTDFTLKISRVEAEDVGVYFCSQSTHVPWTFGGGTKVEIK
B3: Cis-mAb HT2 (humanized) (antibody, V domains shown)
VH: QVQLVQSGAEVKKPGASVKMSCKASGYTFTSYWIHWVKQRPGQGLEWIGVIDPSDSYTRYNQKFKGRATLTVDTSASTAYMELSSLRSEDTAVYYCTTWEVDYWGQGTLVTVSS
VL: DVVMTQSPLSLPVTLGQPASISCRSSQSLVHSDGNTYLHWYLQKPGQSPQLLIYKVSNRFSGVPDRFSGSGSGTDFTLKISRVEAEDVGVYFCSQSTHVPWTFGGGTKVEIK
B4: Cis-mAb HT10 (humanized) (antibody, V domains shown)
VH: QVQLVQSGAEVKKPGASVKMSCKASGYTFTSYWIHWVKQRPGQGLEWIGVIDPSDSYTRYNQKFKGRATLTVDTSASTAYMELSSLRSEDTAVYYCTTWEVDYWGQGTLVTVSS
VL: DVVMTQSPLSLPVTLGQPASISCRSSQSLVHSDGNTYLHWYLQKPGQSPQLLIYKVSNRFSGVPDRFSGSGSGTDFTLKISRVEAEDVGVYYCSQSTHVPWTFGGGTKVEIK
B5: Cis-mAb HT3 (humanized) (antibody, V domains shown)
VH: QVQLVQSGAEVKKPGASVKVSCKASGYTFTSYWIHWVRQRPGQGLEWIGVIDPSDSYTRYNQKFKGRVTLTVDTSASTAYMELSSLRSEDTAVYYCTTWEVDYWGQGTLVTVSS
VL: DVVMTQSPLSLPVTLGQPASISCRSSQSLVHSDGNTYLHWYLQKPGQSPQLLIYKVSNRFSGVPDRFSGSGSGTDFTLKISRVEAEDVGVYFCSQSTHVPWTFGGGTKVEIK
B6: Cis-mAb HT8 (humanized) (antibody, V domains shown)
VH: QVQLVQSGAEVKKPGASVKVSCKASGYTFTSYWIHWVRQRPGQGLEWIGVIDPSDSYTRYNQKFKGRVTITRDTSASTAYMELSSLRSEDTAVYYCTTWEVDYWGQGTLVTVSS
VL: DVVMTQSPLSLPVTLGQPASISCRSSQSLVHSDGNTYLHWYLQKPGQSPQLLIYKVSNRDSGVPDRFSGSGSGTDFTLKISRVEAEDVGVYFCSQSTHVPWTFGGGTKVEIK
B7: Cis-mAb HT18 (humanized) (antibody, V domains shown)
VH: QVQLVQSGAEVKKPGSSVKVSCKASGYTFTSYWIHWVRQAPGQGLEWMGVIDPSDSYTRYNQKFKGRVTITRDTSMSTAYTELSSLRSEDTAVYYCTTWEVDYWGQGTLVTVSS
VL: DIQMTQSPSTLSASVGDRVTITCRSSQSLVHSDGNTYLHWYQQKPGKAPKLLIYKVSNRFSGVPSRFSGSGSGTEFTLTISSLQPDDFATYYCSQSTHVPWTFGQGTKLEIK

The binders below were run against cis P-tau in cultured neurons stressed by hypoxia (assay: cell-based or functional assay).

Binder	Cis P-tau elimination
B1	1 relative (HT13 = 1.0)
B2	1.7 relative (HT13 = 1.0)
B3	1.5 relative (HT13 = 1.0)
B4	0.9 relative (HT13 = 1.0)
B5	1.6 relative (HT13 = 1.0)
B6	0.9 relative (HT13 = 1.0)
B7	0.8 relative (HT13 = 1.0)
